Common to all, as to test: fluorescence polarization
A general note: Polarisation of emitted light reports the rotation of a fluorescent probe.

Data set [1] has as its target T1, GR DBD WT (Homo sapiens, UniProt P04150 417-506).
Data set [2] has as its target T1, GR DBD WT. This is another data set of the same source.
In another data set the target is GR DBD R460D/D462R (Homo sapiens, UniProt P04150 417-506, R460D;D462R).
The target in data set [3] is T1, GR DBD WT. The source holds these as a separate data set.

Read-outs that look alike come from different tables or passages of the source.

T1 sequence (P04150 417-506): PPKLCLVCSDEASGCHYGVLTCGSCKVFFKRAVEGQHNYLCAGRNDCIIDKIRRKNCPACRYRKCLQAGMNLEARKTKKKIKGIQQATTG
Chain of GR DBD R460D/D462R (P04150 417-506 R460D/D462R): as the sequence (P04150 417-506) above, with R44D, D46R counted along it

B1: FGFR3 nGRE (dsDNA)
DNA 1: CTGCCTCCCCGGAGATGG
DNA 2: CCATCTCCGGGGAGGCAG
A word on the Kd: it is a measure of binding affinity in units of concentration. High values mean lower affinity, low ones higher affinity. As for B1, binding with GR DBD WT [1] was put at a Kd of 280 ± 80 nM.

B2: INS nGRE (dsDNA)
DNA 1: TGCTCTCCTGGAGACATT
DNA 2: AATGTCTCCAGGAGAGCA
In the data set with GR DBD WT [1], B2 gave a Kd of 500 ± 70 nM.

B3: TSLP, low site only (dsDNA)
DNA 1: CCGCCTCCGG
DNA 2: CCGGAGGCGG
On to B3, for which, in the data set with GR DBD WT [2], binding was characterised by a dissociation constant (Kd) of 12700 ± 800 nM.

B4: (+)GRE (dsDNA)
DNA 1: CCAGAACAGAGTGTTCTGA
DNA 2: TCAGAACACTCTGTTCTGG
With B4, the Kd with GR DBD R460D/D462R turned out to be 80 ± 7 nM; in the data set with GR DBD WT [3], 70 ± 7 nM.
